Measured values: publication PMC8694150, “Characterization of NucPNP and NucV involved in the early steps of nucleocidin biosynthesis in Streptomyces calvus” (RSC Advances, 2021)

How the values were obtained:
[1] = system: T1, CSC[C@H]1O[C@@H](n2cnc3c(N)ncnc32)[C@H](O)[C@@H]1O; experiment: purified protein; assay type: biochemical, Streptomyces calvus; details: 10 mM phosphate, 50 mM Tris-HCl, 150 mM NaCl, pH 7.5, room temperature, apparent
T1 construct: expressed in E. coli SHuffle T7 Express lysY; amylose then Ni-NTA
Excerpt: (§1) HPLC of adenine formation, Michaelis-Menten fit on MBP-NucPNP

[2] = system: T2, Nc1ncnc2c1ncn2[C@@H]1O[C@H](CO)[C@@H](O)[C@H]1O; experiment: purified protein; assay type: biochemical, Streptomyces calvus; details: 10 mM phosphate, 50 mM Tris-HCl, 150 mM NaCl, pH 7.5, room temperature, apparent
T2 construct: expressed in E. coli SHuffle T7 Express lysY; amylose then Ni-NTA
Excerpt: as §1

[3] = molecular target: T3, NucV (Streptomyces calvus, UniProt A0A142C6V8); experiment: HPLC of AMP formation, Michaelis-Menten fit; assay type: biochemical; details: 10 mM MgCl2, 50 mM Tris-HCl, 150 mM NaCl, pH 7.5, room temperature, apparent
T3 construct: gene apt; N-terminal 6-His tag kept; expressed in E. coli BL21(DE3)
Excerpt: HPLC of AMP formation, Michaelis-Menten fit on NucV

[4] = molecular target: T4, ScAPRT (Streptomyces calvus, UniProt A0A514K045); experiment: HPLC of AMP formation, Michaelis-Menten fit; assay type: biochemical; details: 10 mM MgCl2, 50 mM Tris-HCl, 150 mM NaCl, pH 7.5, room temperature, apparent
T4 construct: gene apt; N-terminal 6-His tag kept; expressed in E. coli BL21(DE3); housekeeping APRT, not NucV
Excerpt: HPLC of AMP formation, Michaelis-Menten fit on ScAPRT

[5] = substrate: Nc1ncnc2nc[nH]c12; experiment: purified protein; details: 500 μM PRPP, 10 mM MgCl2, 50 mM Tris-HCl, 150 mM NaCl, pH 7.5, room temperature, apparent
[6] = substrate: O=P(O)(O)OC[C@H]1O[C@H](OP(=O)(O)OP(=O)(O)O)[C@H](O)[C@@H]1O; experiment: HPLC of AMP formation, Michaelis-Menten fit; assay type: biochemical, Escherichia coli; details: 500 μM adenine, 10 mM MgCl2, 50 mM Tris-HCl, 150 mM NaCl, pH 7.5, room temperature, apparent

T3 sequence (A0A142C6V8 entry or part of it): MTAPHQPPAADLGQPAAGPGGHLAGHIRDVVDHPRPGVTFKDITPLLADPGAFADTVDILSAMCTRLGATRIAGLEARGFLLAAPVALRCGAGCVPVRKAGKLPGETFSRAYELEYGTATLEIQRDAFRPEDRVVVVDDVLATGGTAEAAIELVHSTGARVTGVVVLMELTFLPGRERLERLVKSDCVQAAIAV
T4 sequence (A0A514K045 entry or part of it): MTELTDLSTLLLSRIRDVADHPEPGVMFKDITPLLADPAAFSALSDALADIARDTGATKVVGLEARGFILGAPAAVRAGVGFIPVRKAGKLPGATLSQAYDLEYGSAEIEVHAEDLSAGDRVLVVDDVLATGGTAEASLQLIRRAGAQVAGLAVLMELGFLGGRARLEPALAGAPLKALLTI

Question: For MBP-NucPNP (Streptomyces calvus), which Km [1] is on record?
Answer: The Km was 43.5 ± 4.1 µM.

Question: What about the kcat [1] of the same molecule?
Answer: Its kcat is 0.15 ± 0.01 s⁻¹.

Question: What about the kcat/Km [1] of the same molecule?
Answer: Its kcat/Km is 3400 M⁻¹ s⁻¹.

Question: And the Km [2]?
Answer: The Km was 90.3 ± 8.2 µM.

Question: And the kcat [2]?
Answer: Its kcat is 0.49 ± 0.02 s⁻¹.

Question: What about the kcat/Km [2] of the same molecule?
Answer: The kcat/Km was 5500 M⁻¹ s⁻¹.

Question: With `Nc1ncnc2nc[nH]c12` [compound 3, adenine] as the molecule, how does the Km ([3]; 500 μM PRPP) read?
Answer: Its Km is 6.8 ± 1.4 µM.

Question: And the Km ([4]; 500 μM PRPP)?
Answer: The Km was 2.8 ± 0.6 µM.

Question: Which Km ([3]; 500 μM adenine) does the source give for `O=P(O)(O)OC[C@H]1O[C@H](OP(=O)(O)OP(=O)(O)O)[C@H](O)[C@@H]1O` [compound 5, 5-phospho-α-D-ribose-1-diphosphate] here?
Answer: Its Km is 21.4 ± 3 µM.

Question: And the Km ([4]; 500 μM adenine)?
Answer: The Km was 9.8 ± 2 µM.

B1: EcAPRT (Escherichia coli K-12) (protein)
chain: MTATAQQLEYLKNSIKSIQDYPKPGILFRDVTSLLEDPKAYALSIDLLVERYKNAGITKVVGTEARGFLFGAPVALGLGVGFVPVRKPGKLPRETISETYDLEYGTDQLEIHVDAIKPGDKVLVVDDLLATGGTIEATVKLIRRLGGEVADAAFIINLFDLGGEQRLEKQGITSYSLVPFPGH
notes: N-terminal 6-His tag kept; expressed in E. coli BL21(DE3)
Question: Which Km [5] does the source give for B1 here?
Answer: The Km was 9.6 ± 2.5 µM.

Question: And the kcat [5]?
Answer: Its kcat is 27.3 ± 1.9 s⁻¹.

Question: What about the Km [6] of the same molecule?
Answer: The Km was 46.4 ± 9.0 µM.

Question: What about the kcat [6] of the same molecule?
Answer: Its kcat is 15.9 ± 1.3 s⁻¹.
